Series [1] concerns the target T1, FLAG-RTCB, the catalytic subunit of the human tRNA ligase (Homo sapiens, UniProt Q9Y3I0).
T1 construct: FLAG; made in house; host or cells: HEK293 cells (FLAG-RTCB)
Description: Assay to monitor Archease function and inhibition of RNA ligase activity (linear intron substrate). The class given is biochemical. The settings on record: FLAG-RTCB from HEK293 cells with His-tagged Archease, GTP or GMPcPP at 0.5 mM. The protocol: FIG. 14: Assay to monitor inhibition of RNA ligase activity. […] The linear substrate (second from bottom to top) is converted into a circular product (bottom) or a concatemer (top), which is further circularized (third from bottom to top). Ligation only took place with wild-type Archease and GTP.
The RNA ligation activity of FLAG-RTCB, the catalytic subunit of the human tRNA ligase, was determined in the presence of wildtype or mutant (D39A) Archease with the addition of GTP or non-hydrolysable GMPcPP (5′-guanylylmethylenebisphosphonate). […] The reaction was carried out with FLAG-RTCB purified from HEK293 cells and hexahistidine tagged wild-type or mutant Archease. Furthermore, GTP or GMPcPP were used at 0.5 mM concentration. A linear intron derived from a radioactively labelled pre-tRNA that was transcribed with T7 polymerase and cleaved with recombinant tRNA endonuclease from Methanocaldococcus jannaschii served as substrate. Cleavage products were resolved on preparative denaturing polyacrylamide gels and the linear intron was eluted overnight and recovered by precipitation. With reference to FIG. 14, FLAG-RTCB and wild-type Archease in the presence of GTP are able to convert the linear substrate (second from bottom to top) into a circular product (bottom) or a concatemer (top), which is further circularized (third from bottom to top). This type of assay can be used to validate candidate inhibitors of the Archease or even the ligase or to screen compound libraries in order to find inhibitory molecules.

Series [2] concerns pre-cleaved tRNA substrates. The series is described as follows: RNA ligase activity assay of affinity-purified FLAG-tagged Archease on pre-cleaved tRNA substrates. The class given is biochemical, human. The settings on record: FLAG immuno-precipitate. As to the method:
A) Coomassie Blue stained preparations of FLAG-tagged Archease and HSPC117 affinity purified at 150 mM NaCl. B) RNA ligase activity assay of FLAG-HSPC117 and FLAG-Archease using pre-cleaved tRNA substrates. Extracts of HEK 293 cells were used as a negative control. * Indicates unspecific products.
Stable cell lines expressing a FLAG-tagged version of Archease and HSPC117 were generated to perform immuno-precipitations. Fluted FLAG-Archease was assayed for tRNA ligation in parallel with FLAG-HSPC117, which contains the entire tRNA ligase complex.

Series [3] concerns cleaved Xbp1 RNA minimal substrate. The series is described as follows: In vitro Xbp1 splicing (exon ligation) assay with Ire1 pre-cleaved Xbp1 RNA. The class given is biochemical, human. The settings on record: for Stimulation of ligation of Xbp1 RNA minimal substrates by affinity purified human tRNA ligase complex: addition of recombinant protein. From the text:
FIG. 8: The human tRNA ligase HSPC117 and Archease are both required for non-conventional splicing of Xbp1 mRNA during the Unfolded Protein Response (UPR). A) Experimental outline for in vitro splicing assay. B) An internally labeled fragment of Xbp1 mRNA was pre-cleaved with recombinant Ire1 endonuclease and supplemented with buffer or HeLa whole-cell extract (wce) for the indicated time points to allow ligation of exon halves. Formation of splice product is specific to the presence of both Ire1 and cell extract. Lanes marked “unspliced” and “spliced” contain control transcripts to mark the size of the splice product. C) HSPC117 and Archease both contribute to non-conventional splicing. 3′ end labeled Xbp1 was pre-cleaved with Ire1 and supplemented with whole-cell extract from HeLa cells treated with siRNAs as indicated above the lanes. Cell extracts were harvested 72 hrs post transfection. D) Ligase activity for non-conventional splicing resides in HSPC117 but not in Archease. In vitro splicing assay using 3′end labeled Xbp1 carried out using whole cell extract (input) or FLAG-IP from HEK293 cells stably expressing FLAG-HSPC117, FLAG-Archease or FLAG-DDX1. Ligation activity is only found in IPs of integral members of the tRNA ligase complex. E) Non-conventional splicing activity is stimulated by addition of Archease. Splicing assay using 3′ end labeled Xbp1 carried out as above with addition of buffer or recombinant protein as indicated above the lanes. […] Bovine Serum Albumine (BSA) was included as control.
For the splicing assay RNA was prepared by T7-transcrition from PCR product containing spliced and unspliced form of human Xbp1. Substrates were labelled internally using a-GTP and at the 3′end using ligation to pCp. Substrate was pre-cleaved with recombinant Ire1 for 5 mins in tRNA ligation buffer with subsequent addition of protein extract of FLAG-IP eluate to total volume of 5 μl. Samples were treated with proteinase K and phenol-chloroform extracted prior to loading on 10% PAGE gel.
Perturbation of normal ER function causes mis- or unfolded proteins to accumulate leading to activation of the unfolded protein response (UPR). One of three UPR pathway inducers in mammals, the ER transmembrane protein Ire1, cleaves the Xbp1 mRNA specifically to remove a 26 nt intron (FIG. 8A). […] None of the additional four components of the tRNA ligase complex were required for ligation in agreement with previous findings (WO 2012/28606). […] The reduced ligation activity seen in Archease-depleted extracts raised the question whether Archease is an RNA ligase or rather acts to stimulate the ligation activity of other ligases. To address this question stable cell lines expressing FLAG-tagged versions of HSPC117, Archease, and DDX1 (a DEAD-box helicase component of the human tRNA ligase complex) were generated and the Xbp1 ligation assay using FLAG-IPs was performed.
To further address the stimulatory activity of Archease both HSPC117 and Archease were depleted by RNAi and then an Archease rescue-construct containing either WT or MUT Archease was introduced.

For series [4], the target named is T2, human tRNA ligase complex (Homo sapiens, UniProt Q9Y3I0).
T2 construct: FLAG; made in house; Archease expressed in E. coli
T2 sequence (Q9Y3I0 whole entry): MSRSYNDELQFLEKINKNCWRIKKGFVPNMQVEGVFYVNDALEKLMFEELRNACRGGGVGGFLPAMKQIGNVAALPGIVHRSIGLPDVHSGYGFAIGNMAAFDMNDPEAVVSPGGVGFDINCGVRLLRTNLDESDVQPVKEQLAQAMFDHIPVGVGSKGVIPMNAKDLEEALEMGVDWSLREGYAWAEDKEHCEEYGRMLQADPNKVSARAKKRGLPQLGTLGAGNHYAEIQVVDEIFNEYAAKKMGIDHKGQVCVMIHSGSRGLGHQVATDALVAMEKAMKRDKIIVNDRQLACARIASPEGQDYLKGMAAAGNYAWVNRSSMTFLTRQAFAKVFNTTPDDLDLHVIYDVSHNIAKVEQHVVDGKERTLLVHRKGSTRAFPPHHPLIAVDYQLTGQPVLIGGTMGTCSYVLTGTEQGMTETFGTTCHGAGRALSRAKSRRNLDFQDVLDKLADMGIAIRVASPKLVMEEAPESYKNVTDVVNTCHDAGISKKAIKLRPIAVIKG
T2 sequence (Q92499 whole entry partner): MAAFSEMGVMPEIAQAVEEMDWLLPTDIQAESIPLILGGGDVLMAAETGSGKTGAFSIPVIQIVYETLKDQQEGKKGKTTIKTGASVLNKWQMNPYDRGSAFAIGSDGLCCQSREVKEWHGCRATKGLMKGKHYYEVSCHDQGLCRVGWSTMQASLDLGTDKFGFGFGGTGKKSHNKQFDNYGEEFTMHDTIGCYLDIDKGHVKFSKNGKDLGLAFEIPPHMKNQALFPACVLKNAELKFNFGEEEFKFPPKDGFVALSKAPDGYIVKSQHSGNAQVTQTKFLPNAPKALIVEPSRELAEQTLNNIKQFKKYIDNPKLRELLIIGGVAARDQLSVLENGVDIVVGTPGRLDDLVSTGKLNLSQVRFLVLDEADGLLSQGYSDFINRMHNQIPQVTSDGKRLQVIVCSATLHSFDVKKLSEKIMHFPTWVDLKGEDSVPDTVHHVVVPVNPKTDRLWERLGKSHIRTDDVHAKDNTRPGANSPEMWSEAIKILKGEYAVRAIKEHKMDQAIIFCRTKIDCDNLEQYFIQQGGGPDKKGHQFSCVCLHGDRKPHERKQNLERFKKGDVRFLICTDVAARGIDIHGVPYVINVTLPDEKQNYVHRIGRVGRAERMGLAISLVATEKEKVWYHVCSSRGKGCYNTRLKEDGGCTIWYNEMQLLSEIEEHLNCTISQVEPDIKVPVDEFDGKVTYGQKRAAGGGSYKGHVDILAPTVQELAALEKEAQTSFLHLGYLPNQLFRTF
T2 sequence (Q52LJ0 whole entry partner): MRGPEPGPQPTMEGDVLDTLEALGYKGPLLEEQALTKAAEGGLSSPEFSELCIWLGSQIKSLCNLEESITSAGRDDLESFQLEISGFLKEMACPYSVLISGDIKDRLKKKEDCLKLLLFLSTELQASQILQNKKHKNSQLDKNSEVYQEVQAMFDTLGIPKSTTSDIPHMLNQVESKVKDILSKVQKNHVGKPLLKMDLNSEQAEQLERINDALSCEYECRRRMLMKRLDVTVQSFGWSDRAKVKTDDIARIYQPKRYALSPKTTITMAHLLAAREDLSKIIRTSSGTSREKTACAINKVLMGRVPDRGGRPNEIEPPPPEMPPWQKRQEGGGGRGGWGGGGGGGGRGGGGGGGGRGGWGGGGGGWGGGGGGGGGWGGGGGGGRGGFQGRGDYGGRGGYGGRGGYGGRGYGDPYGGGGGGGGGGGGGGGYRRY
T2 sequence (Q9BVC5 whole entry partner): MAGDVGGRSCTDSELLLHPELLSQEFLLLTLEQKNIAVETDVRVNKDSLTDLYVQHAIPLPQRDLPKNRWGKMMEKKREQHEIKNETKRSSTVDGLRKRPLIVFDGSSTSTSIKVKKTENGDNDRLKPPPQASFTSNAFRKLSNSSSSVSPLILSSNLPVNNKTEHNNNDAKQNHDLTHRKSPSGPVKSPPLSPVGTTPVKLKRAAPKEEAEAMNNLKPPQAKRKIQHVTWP
T2 sequence (Q9Y224 whole entry partner): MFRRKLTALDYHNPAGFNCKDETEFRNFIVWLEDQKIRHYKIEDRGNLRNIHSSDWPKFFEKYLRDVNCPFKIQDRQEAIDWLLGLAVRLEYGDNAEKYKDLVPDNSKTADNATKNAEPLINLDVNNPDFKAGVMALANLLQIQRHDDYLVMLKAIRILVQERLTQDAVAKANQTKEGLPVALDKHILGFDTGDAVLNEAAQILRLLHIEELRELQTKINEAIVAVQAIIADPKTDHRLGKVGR
The series is described as follows: RNA ligation assay with affinity-purified tRNA ligase complex and added recombinant Archease. The class given is biochemical. The conditions noted are these: pre-cleaved tRNA substrates or linear intron; time course. As to the method:
FIG. 3: Archease boosts RNA ligation by the human tRNA ligase complex. A) Time-course ligation assay with affinity-purified tRNA ligase complex and pre-cleaved tRNA substrates in absence or presence of recombinant Archease. B) Time course ligation assay with affinity purified tRNA ligase complex and isolated linear introns (2.5 μM) in absence or presence of recombinant Archease (8.5 μM) expressed in E. coli. The signals corresponding to the concatemerized intron were quantified and plotted as fraction of the total signal detectable in the respective lane.
FIG. 6: The point mutations D39A and K144A abolish the function of Archease in RNA ligation. A) Time-course of ligation activity of FLAG-HSPC117 complexes upon addition of recombinant wild-type or mutant Archease (15 μM). B) SDS-PAGE analysis of purified recombinant wild-type and mutant Archease.
Addition of Archaease influences ligase activity of affinity purified human tRNA ligase complexes.
To study the function of Archease the available NMR structure from the euryarchaeote Methanothermobacter thermautotrophicus (Yee et al., 2002) (36% identical to human protein) was used and aspartic acid (D) 39 and lysine (K) 144, both extremely conserved residues, were replaced by alanines (D39A; K144A) (FIG. 5). Wild-type and mutant versions of Archease were over-expressed in […] and tRNA ligase activity was measured. […] FIG. 6B confirms equal concentrations of recombinant proteins added to the reactions.

Where a chain is given by its changes, count along the chain named. Names and notes keep the numbering of the source.

T1 sequence (Q9Y3I0 whole entry): as the sequence (Q9Y3I0 whole entry) above
T1 sequence (Q92499 whole entry partner): as the sequence (Q92499 whole entry partner) above
T1 sequence (Q52LJ0 whole entry partner): as the sequence (Q52LJ0 whole entry partner) above
T1 sequence (Q9BVC5 whole entry partner): as the sequence (Q9BVC5 whole entry partner) above
T1 sequence (Q9Y224 whole entry partner): as the sequence (Q9Y224 whole entry partner) above

Turning to `Nc1nc2c(ncn2[C@@H]2O[C@H](COP(=O)(O)CP(=O)(O)OP(=O)(O)O)[C@@H](O)[C@H]2O)c(=O)[nH]1` [GMPcPP, 5′-guanylylmethylenebisphosphonate], the “RNA ligation activity of FLAG-RTCB” value in series [1] is on record as “strongly inhibits the ligation reaction”; in series [1] (listed as GMPCPP), “inhibits the reaction”.

B1: FLAG-tagged Archease: FLAG-tagged version of Archease affinity purified from stable cell lines (protein)
chain: MAQEEEDVRDYNLTEEQKAIKAKYPPVNRKYEYLDHTADVQLHAWGDTLEEAFEQCAMAMFGYMTDTGTVEPLQTVEVETQGDDLQSLLFHFLDEWLYKFSADEFFIPREVKVLSIDQRNFKLRSIGWGEEFSLSKHPQGTEVKAITYSAMQVYNEENPEVFVIIDI
modifications: left off: small tags and cut ends
As to B1, the “RNA ligase activity of the affinity-purified protein itself” value in series [2] is given as “RNA ligase activity was only detectable in reactions containing affinity-purified RNA ligase complex but not FLAG-tagged Archease”. Besides, the “Xbp1 ligation activity of FLAG-IP” value in series [3] (FLAG-IP from stable HEK293 cells) is reported as “no ligation was detected”.

B2: K144A: Archease point mutant, lysine 144 replaced by alanine; inactive (protein, listed as Homo sapiens)
chain: B1 chain with K144A
Take B2: in series [4], the “RNA ligase activity of affinity purified tRNA ligase complex upon addition of recombinant Archease” value was “neither of the mutant versions of Archease stimulated the low levels of ligation”. Besides, the “Stimulation of ligation of Xbp1 RNA minimal substrates by affinity purified human tRNA ligase complex” value in series [3] is “inactive”.

B3: D39A: Archease point mutant, aspartic acid 39 replaced by alanine; inactive (protein, listed as Homo sapiens)
chain: B1 chain with D39A
For the molecule B3, the “RNA ligase activity of affinity purified tRNA ligase complex upon addition of recombinant Archease” value in series [4] is reported as “neither of the mutant versions of Archease stimulated the low levels of ligation”. In addition, in series [3], the “Stimulation of ligation of Xbp1 RNA minimal substrates by affinity purified human tRNA ligase complex” value was “inactive”.

(Values after patent US9296994B2, “Archease as RNA ligaes complex member” (IMBA—INSTITUT FÜR MOLEKULARE BIOTECHNOLOGIE GMBH, priority 2012, dated 2016).)
